{"source": "paper PMC5332220", "key": {"SspB_micro [1]": {"target": "SspB_micro (UniProt P45206)"}, "SspB_milli [2]": {"target": "SspB_milli (UniProt P45206)"}, "SspB_nano [3]": {"target": "SspB_nano (UniProt P45206)"}, "SspB_micro [4]": {"target": "SspB_micro (UniProt P45206)", "experiment": "fluorescence polarisation"}, "SspB_milli [5]": {"target": "SspB_milli (UniProt P45206)", "experiment": "fluorescence polarisation"}, "SspB_nano [6]": {"target": "SspB_nano (UniProt P45206)", "experiment": "fluorescence polarisation"}, "SspB_micro [7]": {"target": "SspB_micro (UniProt P45206)", "experiment": "fluorescence polarisation", "remark": "listed apart in the source"}, "SspB_milli [8]": {"target": "SspB_milli (UniProt P45206)", "experiment": "fluorescence polarisation", "remark": "listed apart in the source"}, "SspB_nano [9]": {"target": "SspB_nano (UniProt P45206)", "experiment": "fluorescence polarisation", "remark": "listed apart in the source"}}, "note": "Where two headings read alike, the source gives them in different places.", "data": [{"substance": "sLID (slow Light Inducible Dimer) (designed binder)", "values": [{"measurement": "spine/shaft ratio of GluA1-mCh-SspB fluorescence, dark", "setting": "SspB_micro [1]", "result": 1.5}, {"measurement": "spine/shaft ratio of GluA1-mCh-SspB fluorescence, light", "setting": "SspB_micro [1]", "result": 1.8}, {"measurement": "spine/shaft ratio of GluA1-mCh-SspB fluorescence, dark", "setting": "SspB_milli [2]", "result": 1.5}, {"measurement": "spine/shaft ratio of GluA1-mCh-SspB fluorescence, light", "setting": "SspB_milli [2]", "result": 2.4}, {"measurement": "spine/shaft ratio of GluA1-mCh-SspB fluorescence, dark", "setting": "SspB_nano [3]", "result": 2.8}, {"measurement": "spine/shaft ratio of GluA1-mCh-SspB fluorescence, light", "setting": "SspB_nano [3]", "result": 2.9}, {"measurement": "Kd", "setting": "SspB_micro [4]", "result": 2.5, "unit": "µM"}, {"measurement": "Kd", "setting": "SspB_milli [5]", "result": 125, "unit": "µM"}, {"measurement": "Kd", "setting": "SspB_nano [6]", "result": 0.31, "unit": "µM"}, {"measurement": "Kd", "setting": "SspB_micro [7]", "result": 0.11, "unit": "µM"}, {"measurement": "Kd", "setting": "SspB_milli [8]", "result": 3, "unit": "µM"}, {"measurement": "Kd", "setting": "SspB_nano [9]", "result": 0.007, "unit": "µM"}]}]}
